The record followed here is publication PMC5428041, “Dynamic equilibrium on DNA defines transcriptional regulation of a multidrug binding transcriptional repressor, LmrR”.

For the data set, the target named is T1, LmrR (Lactococcus lactis, UniProt A2RI36 1-116).
T1 sequence: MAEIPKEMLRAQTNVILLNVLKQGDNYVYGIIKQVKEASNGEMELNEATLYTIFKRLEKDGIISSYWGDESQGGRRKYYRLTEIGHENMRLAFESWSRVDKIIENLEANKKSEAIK
The experiment in a line: ITC; apo; 2 LmrR dimers per DNA; 10 mM NaPi pH 6.8, 100 mM NaCl, 25 C (ITC; same buffer for NMR); 5% DMSO in riboflavin titrations. The conditions noted are these: protein: recombinant; tags: C-terminal His6; chain copies: 4.

B1: lmrCD operator 33 bp (dsDNA)
DNA 1: CAATTTAATGTAAAGTAGTTTACATTATTTAAC
DNA 2: GTTAAATAATGTAAACTACTTTACATTAAATTG
With B1, the Kd turned out to be 64 ± 22 nM.
